# Results from paper PMC12251660, “The Structural Deciphering of the α3 Helix Within ZmHsfA2’S DNA-Binding Domain for the Recognition of Heat Shock Elements in Maize”.
# Legend:
# Test in all cases: EMSA; EMSA/Gel-Shift buffer (Beyotime GS009; composition, salt and pH not stated), 10 uL, 25 C 30 min; 6% native PAGE in 0.5x TBE at 4 C
# Conditions in all cases: protein: recombinant; tags: 6xHis (stated C-terminal; pET-30a); chain copies: 3; label: biotin; blunt
# [1] = molecular target: ZmHsf17-T109A (Zea mays, UniProt A0A5J6CYG6 1-373, T109A)
# Chain of ZmHsf17-T109A (A0A5J6CYG6 entry or part of it T109A | T109A T109A): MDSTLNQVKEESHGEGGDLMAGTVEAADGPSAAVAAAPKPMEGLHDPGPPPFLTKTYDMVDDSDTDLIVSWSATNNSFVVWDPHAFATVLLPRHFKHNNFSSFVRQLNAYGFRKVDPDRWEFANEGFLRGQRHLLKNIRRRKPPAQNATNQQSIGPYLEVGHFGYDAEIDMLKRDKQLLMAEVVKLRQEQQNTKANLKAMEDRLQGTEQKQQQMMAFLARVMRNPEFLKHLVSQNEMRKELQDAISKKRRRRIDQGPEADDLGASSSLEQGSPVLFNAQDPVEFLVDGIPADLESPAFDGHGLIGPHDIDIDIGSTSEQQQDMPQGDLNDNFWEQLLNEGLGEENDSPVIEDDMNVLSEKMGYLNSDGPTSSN
# [2] = molecular target: ZmHsf17-R105A (Zea mays, UniProt A0A5J6CYG6 1-373, R105A)
# Chain of ZmHsf17-R105A (A0A5J6CYG6 entry or part of it R105A | R105A R105A): as the sequence (A0A5J6CYG6 entry or part of it T109A | T109A T109A) above, with R105A, A109T counted along it
# [3] = molecular target: ZmHsf17-K142A (Zea mays, UniProt A0A5J6CYG6 1-373, K142A)
# Chain of ZmHsf17-K142A (A0A5J6CYG6 entry or part of it K142A | K142A K142A): as the sequence (A0A5J6CYG6 entry or part of it T109A | T109A T109A) above, with A109T, K142A counted along it
binder,measurement,setting,value
ZmPAH1-HSE2 (dsDNA) DNA 1: CAGCGTCACATGACGGGAATTTTCACGTCTTTTCAGCCCT DNA 2: AGGGCTGAAAAGACGTGAAAATTCCCGTCATGTGACGCTG,binding result,[1],binds
same,binding result,[2],no binding
same,binding result,[3],binds
